B1: C-8-2 scFv displayed on phage (scFv, V domains shown)
VH: EVQLVQSGAEVKKPGSSVKVSCKASGGTESSEAISWVRQAPGQGLEWMGGIIPFFGTANYAQKFQGRVTITADESTSTAYMELSSLRSEDTAVYYCARDGRKDYYGSGSYLHYYGMDVWGQGTTVTVSS
VL: ELVMTQSPLSLPVTPGEPASISCRSSQSLLHSNGYNYLDWYLQRPGQSPQLLIYLGSNRASGVPDRFSGSGSGTDFTLKIGRVEAEDVGIYYCMQALQTPLTFGGGTKVEIK
notes: also called C-8-2 clone
B2: C-8-2-4B-10D scFv displayed on phage (scFv, V domains shown)
VH: EVQLVQSGAEVKKPGSSVKVSCKASDGKEKREAISWVRQAPGQGLEWMGGIIPFFDKANYAQKFQGRVTITADESTSTAYMELSSLRSEDTAVYYCARDGRKDYYGSGSYLHYYGMDVWGQGTTVTVSS
VL: ELVMTQSPLSLPVTPGEPASISCRSSQSLVHSNGYNYLDWYLQRPGQSPQLLIYLGSNRASGVPDRFSGSGSGTDFTLKIGRVEAEDVGIYYCMQAVQTPLTFGGGTKVEIK
B3: C-8-2-4B scFv displayed on phage (scFv, V domains shown)
VH: EVQLVQSGAEVKKPGSSVKVSCKASDGKEKREAISWVRQAPGQGLEWMGGIIPFFDKANYAQKFQGRVTITADESTSTAYMELSSLRSEDTAVYYCARDGRKDYYGSGSYLHYYGMDVWGQGTTVTVSS
VL: ELVMTQSPLSLPVTPGEPASISCRSSQSLLHSNGYNYLDWYLQRPGQSPQLLIYLGSNRASGVPDRFSGSGSGTDFTLKIGRVEAEDVGIYYCMQALQTPLTFGGGTKVEIK
notes: also called clone C-8-2-4B

Target: T1, recombinant MERS-CoV S RBD protein (MERS-CoV, strain ; EMC/2012 …, UniProt K0BRG7)
T1 construct: source: bought: Sino Biological Inc
Test: ELISA
Conditions: one partner purified

Does B1 bind?
Result: binds

Does B2 bind?
Result: binds

Does B3 bind?
Result: binds

Source: PMC6829326 (International Journal of Molecular Sciences, 2019)
